Holding throughout (assay): MST; MST: 20 mM HEPES pH 7.3, 150 mM NaCl, 0.2 mM TCEP, 0.5% CA-630, 25 C; EMSA: 30 uM protein, 10 uM dsDNA, 20 mM Tris pH 8.0, 100 mM NaCl, 2.5 mM MgCl2, 0.1% CA-630, 10% glycerol, 1 uM ZnSO4, 1 mM DTT, 4 C
(In general: Mobility shift assays separate free from complexed probe on a gel.)

In one data set the target is T1, REF6 D1342A (Arabidopsis thaliana, UniProt Q9STM3 1223-1360, D1342A).
T1 sequence: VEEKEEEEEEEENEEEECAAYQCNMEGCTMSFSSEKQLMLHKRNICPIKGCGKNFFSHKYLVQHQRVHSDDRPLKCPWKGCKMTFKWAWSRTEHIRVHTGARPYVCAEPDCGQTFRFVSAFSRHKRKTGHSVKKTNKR
The settings on record: protein: recombinant; tags: His6-MBP or GST, TEV-cleavable; label: FAM in MST; none in crystal and EMSA; 5' overhang 1 nt on both strands, 15 bp.

Another data set concerns the target T2, REF6 F1339A (Arabidopsis thaliana, UniProt Q9STM3 1223-1360, F1339A).
T2 sequence: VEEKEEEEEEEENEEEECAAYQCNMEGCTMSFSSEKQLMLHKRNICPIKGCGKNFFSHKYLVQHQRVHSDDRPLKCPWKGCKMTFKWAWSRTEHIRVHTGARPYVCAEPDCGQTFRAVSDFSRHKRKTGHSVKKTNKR
The settings on record: protein: recombinant; tags: His6-MBP or GST, TEV-cleavable; label: FAM in MST; none in crystal and EMSA; 5' overhang 1 nt on both strands, 15 bp.

Another data set deals with T3, REF6 E1315A (Arabidopsis thaliana, UniProt Q9STM3 1223-1360, E1315A).
T3 sequence: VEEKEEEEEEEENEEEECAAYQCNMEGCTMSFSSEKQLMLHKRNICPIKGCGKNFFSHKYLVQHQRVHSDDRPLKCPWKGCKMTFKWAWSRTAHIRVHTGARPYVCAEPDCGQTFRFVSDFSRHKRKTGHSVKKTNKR
The settings on record: protein: recombinant; tags: His6-MBP or GST, TEV-cleavable; label: FAM in MST; none in crystal and EMSA; 5' overhang 1 nt on both strands, 15 bp.

A further data set addresses T4, REF6 W1309A (Arabidopsis thaliana, UniProt Q9STM3 1223-1360, W1309A).
T4 sequence: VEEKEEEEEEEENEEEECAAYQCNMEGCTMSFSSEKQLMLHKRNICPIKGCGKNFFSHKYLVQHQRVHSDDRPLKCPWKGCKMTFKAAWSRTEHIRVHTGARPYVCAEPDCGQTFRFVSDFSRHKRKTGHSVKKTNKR
The conditions noted are these: protein: recombinant; tags: His6-MBP or GST, TEV-cleavable; label: FAM in MST; none in crystal and EMSA; 5' overhang 1 nt on both strands, 15 bp.

The target of the next data set is T5, REF6 Y1282A (Arabidopsis thaliana, UniProt Q9STM3 1223-1360, Y1282A).
T5 sequence: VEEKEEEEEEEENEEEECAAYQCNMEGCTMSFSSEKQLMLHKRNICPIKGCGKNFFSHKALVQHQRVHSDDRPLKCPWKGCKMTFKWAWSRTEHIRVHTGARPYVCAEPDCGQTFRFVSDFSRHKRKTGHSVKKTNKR
The settings on record: protein: recombinant; tags: His6-MBP or GST, TEV-cleavable; label: FAM in MST; none in crystal and EMSA; 5' overhang 1 nt on both strands, 15 bp.

For a further data set, the target named is T6, REF6 V1340A (Arabidopsis thaliana, UniProt Q9STM3 1223-1360, V1340A).
T6 sequence: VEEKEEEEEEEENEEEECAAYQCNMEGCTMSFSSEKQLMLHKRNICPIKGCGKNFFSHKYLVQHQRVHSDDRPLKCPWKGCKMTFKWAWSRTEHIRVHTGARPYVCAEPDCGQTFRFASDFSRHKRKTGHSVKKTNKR
The settings on record: protein: recombinant; tags: His6-MBP or GST, TEV-cleavable; label: FAM in MST; none in crystal and EMSA; 5' overhang 1 nt on both strands, 15 bp.

A further data set has as its target T7, REF6 ZnF1-4 WT (Arabidopsis thaliana, UniProt Q9STM3 1223-1360).
T7 sequence: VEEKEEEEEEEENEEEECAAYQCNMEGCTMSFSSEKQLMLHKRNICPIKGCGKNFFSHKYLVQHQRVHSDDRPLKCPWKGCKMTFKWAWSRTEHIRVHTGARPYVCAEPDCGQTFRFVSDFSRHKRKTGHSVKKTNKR
The settings on record: protein: recombinant; tags: His6-MBP or GST tag, TEV-cleavable (cleaved when necessary); label: FAM in MST; none in crystal and EMSA; 5' overhang 1 nt on both strands, 15 bp.

1 molecule from article PMC7105484, “Crystal structures of REF6 and its complex with DNA reveal diverse recognition mechanisms” (Cell Discovery, 2020) can be followed below.

B1: NAC004 m5 (dsDNA)
DNA 1: CTTTCTCTGTTTTGTC
DNA 2: GGACAAAACAGAGAAA
What is called Kd is a measure of binding affinity in units of concentration. In the case of B1, the Kd turned out to be 1300 nM with REF6 D1342A; 500 nM with REF6 F1339A; 3.7 µM in the data set with REF6 E1315A; 58.5 µM in the data set with REF6 W1309A; 1100 nM with REF6 Y1282A; 500 nM with REF6 V1340A. For the same molecule, the Kd with REF6 ZnF1-4 WT worked out at 400 nM.
